Results: KR20180081029A (dated 2018)

T1: CD86 expressed on the cell surface of Raji B cells (human, UniProt P42081 24-329)
T1 construct: whole, on cells; Raji cells carry both CD80 and CD86; also called B7.2
T1 sequence (looked up): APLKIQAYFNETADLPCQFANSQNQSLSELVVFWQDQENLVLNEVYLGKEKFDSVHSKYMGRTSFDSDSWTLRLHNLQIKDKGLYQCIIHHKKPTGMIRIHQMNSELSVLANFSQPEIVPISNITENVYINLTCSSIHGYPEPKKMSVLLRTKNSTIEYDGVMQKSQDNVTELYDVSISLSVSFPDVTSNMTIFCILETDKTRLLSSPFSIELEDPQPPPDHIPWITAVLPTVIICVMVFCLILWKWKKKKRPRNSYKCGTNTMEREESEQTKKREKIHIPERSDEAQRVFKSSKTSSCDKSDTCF

T2: CD86 antigen (R&D systems, Cat. #. 141-B2-100) (human, UniProt P42081 26-245)
T2 construct: Bought reagent
T2 sequence (looked up): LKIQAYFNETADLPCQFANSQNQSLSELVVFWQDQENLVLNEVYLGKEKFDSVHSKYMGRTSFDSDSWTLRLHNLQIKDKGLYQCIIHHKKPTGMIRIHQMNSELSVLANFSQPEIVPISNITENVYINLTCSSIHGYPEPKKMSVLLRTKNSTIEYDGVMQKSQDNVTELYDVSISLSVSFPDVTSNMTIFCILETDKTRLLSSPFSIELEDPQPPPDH

B1: 3A2 (CD86) human antibody, IgG form (antibody, V domains shown)
VH: EVQLLESGGGLVQPGGSLRLSCAASGFTFSYYSMSWVRQAPGKGLEWVSSISYGPGYTYYADSVKGRFTISRDNSKNTLYLQMNSLRAEDTAVYYCARYYYYGYYYGYYGAFDYWGQGTLVTVSS
VL: EIVLTQSPGTLSLSPGERATLSCRASQSVSSSYLAWYQQKPGQAPRLLIYGASSRATGIPDRFSGSGSGTDFTLTISRLEPEDFAVYYCQQGYYSNSTFGQGTKVEIK
notes: Converted to IgG, expressed in 293F cells
B2: 3A2 (CD86), Fab clone selected from the Rz human antibody library (Fab, V domains shown)
VH: EVQLLESGGGLVQPGGSLRLSCAASGFTFSYYSMSWVRQAPGKGLEWVSSISYGPGYTYYADSVKGRFTISRDNSKNTLYLQMNSLRAEDTAVYYCARYYYYGYYYGYYGAFDYWGQGTLVTVSS
VL: EIVLTQSPGTLSLSPGERATLSCRASQSVSSSYLAWYQQKPGQAPRLLIYGASSRATGIPDRFSGSGSGTDFTLTISRLEPEDFAVYYCQQGYYSNSTFGQGTKVEIK
notes: Fab (on phage in the panning, soluble from E. coli in the ELISA, detected with anti-HA-HRP, so it carries an HA tag)

Columns and labels:
[1] = target: T1, CD86 expressed on the cell surface of …; experiment: FACS on Raji B cells (figure legend)
[2] = target: T2, CD86 antigen (R&D systems, Cat. #. …); experiment: phage bio-panning of a Fab library on the bought antigen, binding checked by Fab ELISA (anti-HA-HRP)

Binder | binding result [1] | binding result [2]
B1 | binds | –
B2 | – | binds
